In the RNAGym collection of RNA variant scans (doi:10.1073/pnas.2313332121):

B1: TPR t1 (parent)
chain: GACCAAUCUGCCCUCAGAGCUCGAGAACAUCUUCGGAUGCAGAGGAGGCAGGCUUCGGUGGCGCGAUAGCGCCAACGUCCUCAACCUCCAAUGCAUCCCACCACAUGAUGAUGCCUGAAGAGCCUUGGUUUUUUG

Variants of: B1
Experiment: polymerase ribozyme fitness, log enrichment relative to wild type (log ratio); higher = more active; in vitro selection for triplet polymerase activity
Procedure, shortened: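 Input and output libraries were sequenced on Illumina after a single in vitro selection round, run in triplicate on PCR-built, transcribed mutant libraries of each subunit of a heterodimeric triplet polymerase ribozyme. Selection annealed libraries to a biotinylated primer, the partner subunit and triplets, incubated them frozen at −7 °C, then gel-excised extended constructs for streptavidin-bead capture and RT-PCR. Genotypes with ≥10 input reads and ≥1 read per output were kept. Fitness is the logarithm, taken in base 2, of genotype enrichment divided by wild-type enrichment, using inverse-variance-weighted replicate averages.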

First: G69C C89G C123A G135U
Second: G69U C104G U133G
The “polymerase ribozyme fitness (log ratio)” value of the first is higher: -4.06 for the first, -5.17 for the second.

Compared with G69U C88U, C70U A74U C86A is lower in “polymerase ribozyme fitness (log ratio)” value: -0.366 for the first, -4.13 for the second.

First: G69A A74G
Second: C70G C85A C123U U130A U133C
The “polymerase ribozyme fitness (log ratio)” value of the first is lower: -5.42 for the first, -3.14 for the second.

Going from G69U G127A U131A to C70A G128U, the “polymerase ribozyme fitness (log ratio)” value falls from -2.75 to -3.9.

First: G71C C114U G122A U129A
Second: A66U C114A
The “polymerase ribozyme fitness (log ratio)” value of the first is lower: -4.82 for the first, -3.05 for the second.

Going from C70G U78C G120A U130G to G69U C72A, the “polymerase ribozyme fitness (log ratio)” value falls from -2.19 to -2.5.

Compared with G71A C114U G127U, A66U C94A is higher in “polymerase ribozyme fitness (log ratio)” value: -5.52 for the first, -2.12 for the second.

First: A68U C97A G120C
Second: A68C A84U U112G G117C
The “polymerase ribozyme fitness (log ratio)” value of the first is higher: -6.59 for the first, -7.28 for the second.

Compared with C64U U116G G117C, G69A G127C is lower in “polymerase ribozyme fitness (log ratio)” value: -2.86 for the first, -3.47 for the second.

Going from C64U U92C G113A G127U U131C to G71C C85A, the “polymerase ribozyme fitness (log ratio)” value rises from -3.48 to -3.19.

Compared with G71C C85U, G71A C101A G113U is lower in “polymerase ribozyme fitness (log ratio)” value: -2.23 for the first, -5.02 for the second.

Going from G65A C88U to C70U U112A, the “polymerase ribozyme fitness (log ratio)” value rises from -5.19 to 0.732.

First: C70U U96G
Second: G71C G77C C114G U116G
The “polymerase ribozyme fitness (log ratio)” value of the first is higher: -1.09 for the first, -5.32 for the second.

Going from G71A C99U to C70U C94A, the “polymerase ribozyme fitness (log ratio)” value rises from -3.17 to -1.13.

Compared with C70U C94G, G71C A84G C104A U109G G117U C124A U130G is lower in “polymerase ribozyme fitness (log ratio)” value: -0.729 for the first, -5.84 for the second.

Compared with C70G G117C, C70G C104U is higher in “polymerase ribozyme fitness (log ratio)” value: -5.07 for the first, -3.03 for the second.

First: G69A G93A A95C A121U
Second: C64U U78G
The “polymerase ribozyme fitness (log ratio)” value of the first is lower: -3.33 for the first, -0.112 for the second.

Compared with G69A C85A, G69U C85G C99U A100C G110A is lower in “polymerase ribozyme fitness (log ratio)” value: -4.3 for the first, -5.56 for the second.

First: G69U G117A
Second: G69A U116G
The “polymerase ribozyme fitness (log ratio)” value of the first is higher: -0.296 for the first, -4.55 for the second.

First: C70U C101A U106C U133A
Second: G71A C79G G127A
The “polymerase ribozyme fitness (log ratio)” value of the first is higher: -0.685 for the first, -3.33 for the second.

First: A66C C70A
Second: G71C A75G
The “polymerase ribozyme fitness (log ratio)” value of the first is lower: -3.75 for the first, -0.0431 for the second.

Going from C64U U106C to U67A G69U, the “polymerase ribozyme fitness (log ratio)” value falls from -0.52 to -5.08.

First: A66U C73A C89U
Second: G69U U87A G127U U130A G135U
The “polymerase ribozyme fitness (log ratio)” value of the first is higher: -1.72 for the first, -2.93 for the second.

Compared with C70U C97U U106A G127U, C70G A111G G135U is lower in “polymerase ribozyme fitness (log ratio)” value: -1.69 for the first, -4.58 for the second.

Compared with G69U U81G U116C, G71A A105U is lower in “polymerase ribozyme fitness (log ratio)” value: -1.49 for the first, -3.04 for the second.

First: G71A C79U A83G U129G
Second: A66G G127U
The “polymerase ribozyme fitness (log ratio)” value of the first is lower: -3.32 for the first, -1.49 for the second.

Compared with C70A C123A, A66U C72U C115G is lower in “polymerase ribozyme fitness (log ratio)” value: -0.557 for the first, -2.47 for the second.

Going from C70U G113A U131A to G69U C70G U87G G117A, the “polymerase ribozyme fitness (log ratio)” value falls from -0.868 to -1.97.

First: A68G A84G
Second: C64U U78C U96C C124U U126C U133G
The “polymerase ribozyme fitness (log ratio)” value of the first is lower: -3.98 for the first, -0.424 for the second.

Going from G71A G120C G122A to C70U G117C, the “polymerase ribozyme fitness (log ratio)” value falls from -1.43 to -4.24.

Going from G69A G110C U129A to C70U C102A, the “polymerase ribozyme fitness (log ratio)” value rises from -7.59 to -1.86.

Going from G71C C85U U92C to C70G G127U, the “polymerase ribozyme fitness (log ratio)” value rises from -4.52 to -3.25.

Going from G69U G93U to C64U G107A, the “polymerase ribozyme fitness (log ratio)” value falls from -1.01 to -3.01.

Compared with G69U U116A, G69U U96G is higher in “polymerase ribozyme fitness (log ratio)” value: -1.65 for the first, -0.302 for the second.

Compared with A66U A68G C73A C82A, G69A G122U is higher in “polymerase ribozyme fitness (log ratio)” value: -4.09 for the first, -2.62 for the second.

First: G69U C114A
Second: C70U U78A A95U U112G
The “polymerase ribozyme fitness (log ratio)” value of the first is higher: -0.78 for the first, -2.17 for the second.

First: G69U C114A A121G U130G
Second: G69C C97U
The “polymerase ribozyme fitness (log ratio)” value of the first is higher: 0.399 for the first, -2.66 for the second.

First: A66U C79U
Second: C70U U116A
The “polymerase ribozyme fitness (log ratio)” value of the first is higher: -0.834 for the first, -3.33 for the second.

Going from A66U G93C C114G to G69U C79G U109G, the “polymerase ribozyme fitness (log ratio)” value rises from -5.41 to -2.86.

First: C64U G127C
Second: G71A C123A
The “polymerase ribozyme fitness (log ratio)” value of the first is lower: -1.82 for the first, -0.22 for the second.

Going from A66U C85U G117A to C70U A91C C101U U112A U129C, the “polymerase ribozyme fitness (log ratio)” value falls from -4.29 to -6.24.

With A68G C73U the “polymerase ribozyme fitness (log ratio)” value was -2.42.
